Results on 1 substance are retold here after patent publication WO2023219147A1.

This assay addresses human CCR8 (human). The assay is described as follows: flow cytometry on CD4-gated tumor-infiltrating cells of ovarian cancer; APC-labeled L263G8 2 ug/mL. (In general: A flow cytometer gives signals particle by particle.)

“anti-human CCR8 antibody L263G8 (BioLegend)”: the positive rate of the FoxP3-positive CCR8-positive fraction turned out to be 46.6%.
